According to publication PMC4619609:

How the values were obtained:
Experiment in all cases: ELISA
[1] = molecular target: recombinant CD4-IgG2 protein (UniProt P01730); conditions: 10 µg/ml; gp120s from virus lysates; parent: est. 3.7; read off a plot
[2] = molecular target: mAb 1331 (CD4bs); conditions: mAbs (10 µg/ml); gp120s from virus lysates; parent: est. 2.0; read off a plot
[3] = molecular target: mAb 1418 (Ctrl); conditions: mAbs (10 µg/ml); gp120s from virus lysates; parent: est. 0.21; read off a plot
[4] = molecular target: mAb 1393A (V2i); conditions: mAbs (10 µg/ml); gp120s from virus lysates; parent: est. 2.2; read off a plot
[5] = molecular target: mAb 2219 (V3); conditions: mAbs (10 µg/ml); gp120s from virus lysates; parent: est. 2.2; read off a plot
[6] = molecular target: mAb 1357 (V2i); conditions: mAbs (10 µg/ml), gp120s from virus lysates
[7] = molecular target: mAb 1361 (V2i); conditions: mAbs (10 µg/ml); gp120s from virus lysates; parent: est. 2.8; read off a plot
[8] = molecular target: mAb 2158 (V2i); conditions: mAbs (10 µg/ml); gp120s from virus lysates; parent: est. 2.0; read off a plot
[9] = molecular target: mAb 830A (V2i); conditions: mAbs (10 µg/ml); gp120s from virus lysates; parent: est. 2.1; read off a plot

Substance: gp120 of ZM109 WT R153E
- response [1]: 3.6 OD 405nm
- response [2]: 1.9 OD 405nm
- response [3]: 0.17 OD 405nm
- response [4]: 2.4 OD 405nm
- response [5]: 2.6 OD 405nm
- ratio to parent [6]: 3 x
- response ([6]; parent: est. 0.46, read off a plot): 1.5 OD 405nm
- response [7]: 2.3 OD 405nm
- response [8]: 1.7 OD 405nm
- response [9]: 2 OD 405nm
